Data published in patent US5395750, “Methods for producing proteins which bind to predetermined antigens” (Hoffmann-La Roche Inc., dated 1995).

Biological target: HIV-1 tat protein (HIV-1, UniProt P04608)
Experiment: phage binding to tat coated magnetic beads; TR5 also selected in 4 separate screening experiments

B1: phage TR5 (anti-tat Fv, synthetic single chain antibody displayed on FUSE5 phage) (scFv)
scFv: EVQLVESGRGLVQPGGSLRLSCAASGFTFSHFLVAWVRQAPGKGLEWVATYSMISRARVLDGSFNGRYTISRDDSKNTLYLQMNSLRAEDTAVYYCARIGSTHTIPRLSQYGGQGTLVTVSSGGGGSGGGGSGGGGSDIQMTQSPSSLSASVGDRVTITCKLRGPQPHAITWYQQKPGKAPKLLIYYDGQTLVGVPSRFSGSGSGTDFTPTISSLEPEDFATYYCTPTHKIDSPFGQGTKVEIKRT
B1: binds.
